Test results from patent US20200283491A1.

How the values were obtained:
Experiment in all cases: cell-based or functional assay
rat Y2 receptor (rat) = rat Y2 receptor (rat) (UniProt Q9ERC0)
[1] = molecular target: rhesus monkey Y2 receptor (rhesus monkey) (UniProt Q9GK74)
[2] = molecular target: mouse Y2 receptor (mouse) (UniProt P97295)
[3] = molecular target: human Y1 receptor (human) (UniProt P25929)
human Y1 receptor (human), sequence (P25929 whole entry): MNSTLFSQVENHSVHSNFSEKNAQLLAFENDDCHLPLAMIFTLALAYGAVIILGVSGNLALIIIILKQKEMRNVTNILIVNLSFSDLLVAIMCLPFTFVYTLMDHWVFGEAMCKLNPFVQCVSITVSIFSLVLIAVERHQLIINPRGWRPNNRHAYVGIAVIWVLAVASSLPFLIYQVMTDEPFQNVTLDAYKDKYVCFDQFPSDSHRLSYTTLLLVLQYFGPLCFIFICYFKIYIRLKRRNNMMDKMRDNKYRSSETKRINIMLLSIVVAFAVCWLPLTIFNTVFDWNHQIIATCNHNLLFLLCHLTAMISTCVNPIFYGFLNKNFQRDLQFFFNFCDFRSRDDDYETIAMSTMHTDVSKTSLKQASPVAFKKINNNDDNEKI

rat Y2 receptor (rat), sequence (Q9ERC0 entry or part of it): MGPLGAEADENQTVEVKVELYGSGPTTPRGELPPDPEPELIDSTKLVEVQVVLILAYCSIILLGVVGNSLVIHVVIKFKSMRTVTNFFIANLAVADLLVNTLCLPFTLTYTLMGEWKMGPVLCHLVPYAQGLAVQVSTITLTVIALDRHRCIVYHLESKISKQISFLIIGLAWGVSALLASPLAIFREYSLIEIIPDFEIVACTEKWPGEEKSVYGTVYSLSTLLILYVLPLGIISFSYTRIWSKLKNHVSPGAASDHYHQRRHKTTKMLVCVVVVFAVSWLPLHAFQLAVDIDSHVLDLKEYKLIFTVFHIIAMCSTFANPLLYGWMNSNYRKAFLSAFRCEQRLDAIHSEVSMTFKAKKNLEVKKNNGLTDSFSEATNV
rhesus monkey Y2 receptor (rhesus monkey), sequence (Q9GK74 whole entry): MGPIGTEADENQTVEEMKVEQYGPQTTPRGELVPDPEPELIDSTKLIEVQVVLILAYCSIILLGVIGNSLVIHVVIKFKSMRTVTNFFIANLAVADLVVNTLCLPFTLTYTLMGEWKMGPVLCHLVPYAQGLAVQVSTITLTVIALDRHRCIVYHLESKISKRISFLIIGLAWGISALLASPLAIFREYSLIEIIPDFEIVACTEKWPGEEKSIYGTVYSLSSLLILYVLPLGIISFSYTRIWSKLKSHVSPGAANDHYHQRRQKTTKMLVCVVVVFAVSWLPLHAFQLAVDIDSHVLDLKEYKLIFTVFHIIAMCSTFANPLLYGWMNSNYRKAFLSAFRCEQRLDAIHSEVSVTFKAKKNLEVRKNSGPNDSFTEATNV
mouse Y2 receptor (mouse), sequence (P97295 whole entry): as the sequence (Q9ERC0 entry or part of it) above, with L4V, L20P, S23P, P25H, V52I, Q163R, V175I, K247R, T266M, L371P counted along it

## PYY3-36 (from UniProt P10082 31-64) (peptide)
Rat Y2 receptor (rat)
  Cross-species potency (EC50 nM), cAMP assay: 0.5 nM
[1]
  Cross-species potency (EC50 nM), cAMP assay: 0.06 nM
[2]
  Cross-species potency (EC50 nM), cAMP assay: 0.03 nM
[3]
  Human isoform potency (EC50 nM), cAMP assay: 66.4 nM
